B1: recombinant murine IL-33 (ligand)
chain: SIQGTSLLTQSPASLSTYNDQSVSFVLENGCYVINVDDSGKDQEQDQVLLRYYESPCPASQSGDGVDGKKLMVNMSPIKDTDIWLHANDKDYSVELQRGDVSPPEQAFFVLHKKSSDFVSFECKNLPGTYIGVKDNQLALVEEKDESCNNIMFKLSKI
modifications: Reduced (active) form with free cysteines. Limits are not given; the usual commercial (BioLegend) mature mouse IL-33, Ser109-Ile266, is assumed, matching the candidate chain 109-266
B2: HpARI_CCP2/3 (HpARI truncation lacking CCP1) (domain or fragment)
chain: TYDPTPNTPTTVGKDGIWNGVDYRNGSTVKPYCDTGPVINGSSKAVCVSGKWVPTLGVCPKMCSIGSLKENGKFVDVTATTKGDELNPPPREQTLIPIVRKVDKDKVQHGVKVVALCKAEDSTTAAEGVQEFECDNGKWKPEPVPCP
B3: HpARI_CCP1/2 (HpARI truncation lacking CCP3) (domain or fragment)
chain: AGQRCRFTDVERDKGYTGMLLKGRLRKTAGNGRTVELICGRGNHNYTCESGVLKESSPRQARCGCKGILEMLFDMPKEERPSPMYDSVTYDPTPNTPTTVGKDGIWNGVDYRNGSTVKPYCDTGPVINGSSKAVCVSGKWVPTLGVCPK

How the values were obtained:
[1] = target: T1, H. polygyrus Alarmin Release Inhibitor (HpARI), full-length (Heligmosomoides polygyrus); assay: SPR; HpARI, HpARI_CCP1/2 or HpARI_CCP2/3 captured via the hexa-His tag and covalently stabilised on an NTA chip (400 RU); mIL-33 2.47-200 nM injected, single-cycle kinetics, 25 °C; 10 mM NaH2PO4 pH 7.5, 150 mM NaCl, 50 μM EDTA, 0.05% P20; global fit of a 1:1 model with mass transport; settings: both partners purified
T1 construct: It was cloned into the secretion vector pSecTAG2A, so the native signal peptide may be missing and a vector leader used (surmise); also called full-length HpARI; source: Expi293F cells, transfected (pSecTAG2A), purified from supernatant (HisTrap excel, HiTRAP chelating HP Ni column); not shown: His6, C-terminal, kept

[2] = target: B1; assay: as above; settings: both partners purified

| Binder | Kd [1] | koff [1] | Kd [2] | koff [2] |
| --- | --- | --- | --- | --- |
| B1 | 1.1 nM | 0.00015 s⁻¹ | – | – |
| B2 | – | – | 1.4 nM | – |
| B3 | – | – | 9.8 nM | 0.003 s⁻¹ |
